Data reported in patent CN108503708A.
Like-named read-outs stand apart in the source and are kept apart here.

B1: H10C7+L26A6 (affinity-matured variant of hS2C3) (antibody, part only; not given: constant regions, V domains shown, part only)
VH: QVQLVQSGAEVKKPGASVKVSCKASGYTFTDYYMHWVRQAPGQRLEWMGWIYPGSGNTRYSQKFKDRVTMTRDTSTSTVYMELSSLRSEDTAVYYCARREEDYFDYWGQGTLVTVSS
B2: H11E5+L26A6 (affinity-matured variant of hS2C3) (antibody, part only; not given: constant regions, V domains shown, part only)
VH: QVQLVQSGAEVKKPGASVKVSCKASGYTFTDYYMHWVRQAPGQRLEWMGWIYPSSGNTKYAQKFKDRVTMTRDTSTSTVYMELSSLRSEDTAVYYCARREEDYFDYWGQGTLVTVSS

What was measured:
[1] = biological target: huCD47-D1-his (recombinant human CD47 extracellular region D1 with C-terminal His tag) (human (homo sapiens)) (UniProt Q08722); experiment: SPR BIAcore, against hS2C3 as reference
[2] = biological target: hCD47 mutant E35A (human (homo sapiens)) (UniProt Q08722); experiment: SPR BIAcore, against natural hCD47 as reference
[3] = biological target: hCD47 mutant Q1A (human (homo sapiens)) (UniProt Q08722); experiment: SPR BIAcore, against natural hCD47 as reference
[4] = biological target: huCD47-D1-his (recombinant human CD47 extracellular region D1 with C-terminal His tag) (human (homo sapiens)) (UniProt Q08722); experiment: SPR BIAcore, by the method of Example 3 (antibody captured, huCD47-D1-his analyte)
[5] = biological target: hCD47-mFc (human CD47 extracellular region D1 fused to mouse IgG2a Fc) (human (homo sapiens)); experiment: competition ELISA by the method of Example 3 (hCD47-mFc coated, hCD172a-D1M1-His as competitor)
[6] = biological target: hCD47-mFc (human CD47 extracellular region D1 fused to mouse IgG2a Fc) (human (homo sapiens)); experiment: as above; remark: listed apart in the source

Binder | fold improvement of affinity over hS2C3 [1] | fold increase of affinity against natural hCD47 [2] | fold decrease of affinity against natural hCD47 [3] | Kd [4] | koff [4] | kon [4] | IC50 [5] | IC50 [6]
B1 | 5 fold | 4 fold | 100 fold | 2.32 nM | 0.00193 s⁻¹ | 833000 M⁻¹ s⁻¹ | 4.25 nM | < 5 nM
B2 |  |  |  | 1.83 nM | 0.0017 s⁻¹ | 930000 M⁻¹ s⁻¹ | 3.52 nM | < 5 nM
